# Test results as given in PMC3121171 (Forum on immunopathological diseases and therapeutics, 2011).
# T1: Purified recombinant human GRK2 (G protein-coupled receptor kinase 2) (human, UniProt P25098 1-689)
# T1 sequence (looked up): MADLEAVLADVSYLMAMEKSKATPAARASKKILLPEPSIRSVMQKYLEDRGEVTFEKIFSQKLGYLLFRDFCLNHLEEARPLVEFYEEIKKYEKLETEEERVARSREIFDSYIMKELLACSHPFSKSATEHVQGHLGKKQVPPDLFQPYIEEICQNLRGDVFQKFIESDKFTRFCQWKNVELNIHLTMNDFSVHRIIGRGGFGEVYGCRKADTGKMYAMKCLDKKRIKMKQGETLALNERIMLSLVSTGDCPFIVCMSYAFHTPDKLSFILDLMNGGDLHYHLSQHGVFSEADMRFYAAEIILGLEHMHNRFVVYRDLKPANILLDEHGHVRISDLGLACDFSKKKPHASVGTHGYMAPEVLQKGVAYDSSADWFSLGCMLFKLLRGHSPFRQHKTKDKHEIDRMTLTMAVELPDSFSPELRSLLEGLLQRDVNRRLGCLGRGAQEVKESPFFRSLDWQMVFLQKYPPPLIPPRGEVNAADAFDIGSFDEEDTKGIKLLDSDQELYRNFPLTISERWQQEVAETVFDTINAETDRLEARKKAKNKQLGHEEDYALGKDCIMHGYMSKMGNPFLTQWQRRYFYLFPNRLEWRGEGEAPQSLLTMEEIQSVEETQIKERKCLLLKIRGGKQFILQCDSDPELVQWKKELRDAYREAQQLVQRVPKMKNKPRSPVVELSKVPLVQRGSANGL
# B1: His-tagged human RKIP-1/PEBP-1 (Raf kinase inhibitor protein) (natural protein)
# chain: MPVDLSKWSGPLSLQEVDEQPQHPLHVTYAGAAVDELGKVLTPTQVKNRPTSISWDGLDSGKLYTLVLTDPDAPSRKDPKYREWHHFLVVNMKGNDISSGTVLSDYVGSGPPKGTGLHRYVWLVYEQDRPLKCDEPILSNRSGDHRGKFKVASFRKKYELRAPVAGTCYQAEWDDYVPKLYEQLSGK
# Target: T1, Purified recombinant human GRK2 (G …)
# Assay: pull-down
binder,measurement,value
B1,binding result,binds
